These results are taken from patent US20240101692A1 (CEMM FORSCHUNGSZENTRUM F R MOLEKULARE MEDIZIN, published 2024).

Changes are numbered by the printed parent chain.

The target in test [1] is T1, Fc-hAPRIL C-terminal truncation ps4188 (aa 98-229) (human, UniProt O75888 115-246).
T1 construct: also called Fc-APRIL-ps4188
T1 sequence: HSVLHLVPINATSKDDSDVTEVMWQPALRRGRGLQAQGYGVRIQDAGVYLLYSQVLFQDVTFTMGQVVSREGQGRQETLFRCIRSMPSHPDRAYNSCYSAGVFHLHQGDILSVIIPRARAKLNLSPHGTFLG
In words: sandwich ELISA on supernatant of transfected cells, capture Aprily5, detection Aprily 1-biot. On the technique in general: In an ELISA, binding on a coated surface is turned into a signal by an enzyme label.

In test [2] the target is T2, Fc-hAPRIL C-terminal truncation ps4187 (aa 98-230) (human, UniProt O75888 115-247).
T2 construct: also called Fc-APRIL-ps4187
T2 sequence: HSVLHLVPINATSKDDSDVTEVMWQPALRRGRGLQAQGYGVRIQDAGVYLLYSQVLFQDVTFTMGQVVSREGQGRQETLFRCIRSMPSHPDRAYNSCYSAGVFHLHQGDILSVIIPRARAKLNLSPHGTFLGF
The description is as above.

For test [3], the target named is T3, Fc-hAPRIL C-terminal truncation ps4185 (aa 98-232) (human, UniProt O75888 115-249).
T3 construct: also called Fc-APRIL-ps4185
T3 sequence: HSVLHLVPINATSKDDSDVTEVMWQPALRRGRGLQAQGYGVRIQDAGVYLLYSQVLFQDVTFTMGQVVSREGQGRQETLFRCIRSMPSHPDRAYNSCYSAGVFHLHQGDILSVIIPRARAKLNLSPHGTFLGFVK
The description is as above.

The target of test [4] is T4, Fc-hAPRIL WT (ps1307) (human, UniProt O75888 115-250).
T4 construct: APRIL residues are counted from Met18; also called Fc-APRIL-ps1307
T4 sequence: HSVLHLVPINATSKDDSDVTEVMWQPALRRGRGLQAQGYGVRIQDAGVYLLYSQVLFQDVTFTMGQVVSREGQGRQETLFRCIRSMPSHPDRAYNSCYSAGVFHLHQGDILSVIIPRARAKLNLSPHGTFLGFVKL
Described as above.

The target in test [5] is T5, Fc-hAPRIL C-terminal truncation ps4186 (aa 98-231) (human, UniProt O75888 115-248).
T5 construct: also called Fc-APRIL-ps4186
T5 sequence: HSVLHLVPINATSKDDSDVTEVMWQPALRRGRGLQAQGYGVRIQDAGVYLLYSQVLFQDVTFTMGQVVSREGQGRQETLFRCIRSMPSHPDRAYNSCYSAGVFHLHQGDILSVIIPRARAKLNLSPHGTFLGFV
Described as above.

Another test concerns the target T6, Flag-mouse APRIL (mouse, UniProt Q9D777 96-241, limits assumed).
T6 construct: Denatured in the assay (SDS-PAGE and Western blot)
T6 sequence (looked up): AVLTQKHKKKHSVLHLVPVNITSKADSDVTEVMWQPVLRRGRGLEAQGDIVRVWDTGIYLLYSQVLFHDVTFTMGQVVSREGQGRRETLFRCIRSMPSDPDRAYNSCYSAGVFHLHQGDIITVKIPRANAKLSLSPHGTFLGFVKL
In words: Western blot of 50 ng Flag-mAPRIL after SDS-PAGE. On the procedure: 50 ng of Flag-mouse APRIL “m” or Flag-human APRIL “h” were analyzed by SDS-PAGE on a 12% acrylamide gel, followed by Western blotting with the indicated anti-APRIL antibodies at 1 μg/ml, followed by HRP-coupled anti-mouse secondary reagent, or with a biotinylated anti-Flag antibody (M2-biot) followed by HRP-coupled streptavidin. The micration of molecular weight markers (in kDa) are indicated on the left-hand side.
(In general: A western blot detects proteins with antibodies after separation by electrophoresis.)

The target in test [6] is T1, Fc-hAPRIL C-terminal truncation ps4188 …. In words: sandwich ELISA on supernatant of transfected cells, capture Aprily5, detection Aprily2-biot.
Test [7] concerns the target T2, Fc-hAPRIL C-terminal truncation ps4187 …. The test is described as above.
The target in test [8] is T3, Fc-hAPRIL C-terminal truncation ps4185 …. The description is as above.
The target of test [9] is T4, Fc-hAPRIL WT (ps1307). Described as above.
Test [10] concerns the target T5, Fc-hAPRIL C-terminal truncation ps4186 …. The test is described as above.
Test [11] addresses heparan sulfate proteoglycan 2 (human, UniProt P98160 22-4391). In words: confocal microscopy of human coronary artery specimens stained with Aprily 2 and anti-HSPG2.

B1: Aprily 1 (antibody, V domains shown)
VH: QIQLVQSGPELKKPGETVRISCKASGYNFKTSGMSWVKQAPGKGLKWMGWIDTYAGVPTYTDDFKGRFVFSLETSATTAFLQINNLKNEDTGTYFCAREPGTDNWGQGTSLTVSS
VL: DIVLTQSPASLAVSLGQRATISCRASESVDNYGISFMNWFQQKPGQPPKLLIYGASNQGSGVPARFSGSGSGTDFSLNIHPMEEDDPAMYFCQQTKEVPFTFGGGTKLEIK
notes: Anti-human APRIL monoclonal antibody; Used biotinylated as detection antibody in some ELISAs; also called Aprily 1-biot
With B1, the binding result in test [1] is reported as “binds”; in test [2] it was “binds”; in test [3], “binds”; with Fc-hAPRIL WT (ps1307) [4], “binds”; in [5] it was “binds”; in the test with Flag-mouse APRIL it was “no binding (tested: 1 µg/ml)”.

B2: Aprily 2 (antibody, V domains shown)
VH: B1 VH with N28T, T53A, V57I, V69A, E73D
VL: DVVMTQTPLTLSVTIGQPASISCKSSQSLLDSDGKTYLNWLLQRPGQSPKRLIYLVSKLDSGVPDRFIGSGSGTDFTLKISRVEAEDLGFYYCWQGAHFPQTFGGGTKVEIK
notes: Anti-human APRIL monoclonal antibody; Used coupled to beads for depletion and biotinylated for detection; also called Aprily 2-biot
In the case of B2, the binding result was “binds” in test [6]; “binds” in [7]; “binds” in test [8]; “binds” with Fc-hAPRIL WT (ps1307) [9]; “binds” in [10]; “no binding (tested: 1 µg/ml)” with Flag-mouse APRIL.

B3: APRIL in human arteries (ligand)
chain: AVLTQKQKKQHSVLHLVPINATSKDDSDVTEVMWQPALRRGRGLQAQGYGVRIQDAGVYLLYSQVLFQDVTFTMGQVVSREGQGRQETLFRCIRSMPSHPDRAYNSCYSAGVFHLHQGDILSVIIPRARAKLNLSPHGTFLGFVKL
notes: Endogenous protein in tissue sections
In the case of B3, in test [11], the binding result was “binds”.
